Data taken from PMC12520249 (Nature, 2025).

Biological target: the molecule itself
Assay: cryo-EM structure

B1: hGluD2(R710W), human GluD2 with the cerebellar ataxia mutation R710W (receptor, UniProt O43424-1 24-1007, looked up)
chain: DSIIHIGAIFDESAKKDDEVFRTAVGDLNQNEEILQTEKITFSVTFVDGNNPFQAVQEACELMNQGILALVSSIGCTSAGSLQSLADAMHIPHLFIQRSTAGTPRSGCGLTRSNRNDDYTLSVRPPVYLHDVILRVVTEYAWQKFIIFYDSEYDIRGIQEFLDKVSQQGMDVALQKVENNINKMITTLFDTMRIEELNRYRDTLRRAILVMNPATAKSFITEVVETNLVAFDCHWIIINEEINDVDVQELVRRSIGRLTIIRQTFPVPQNISQRCFRGNHRISSTLCDPKDPFAQNMEISNLYIYDTVLLLANAFHKKLEDRKWHSMASLSCIRKNSKPWQGGRSMLETIKKGGVSGLTGELEFGENGGNPNVHFEILGTNYGEELGRGVRKLGCWNPVTGLNGSLTDKKLENNMRGVVLRVVTVLEEPFVMVSENVLGKPKKYQGFSIDVLDALSNYLGFNYEIYVAPDHKYGSPQEDGTWNGLVGELVFKRADIGISALTITPDRENVVDFTTRYMDYSVGVLLRRAEKTVDMFACLAPFDLSLWACIAGTVLLVGLLVYLLNWLNPPRLQMGSMTSTTLYNSMWFVYGSFVQQGGEVPYTTLATRMMMGAWWLFALIVISSYTANLAAFLTITRIESSIQSLQDLSKQTEIPYGTVLDSAVYEHVRMKGLNPFERDSMYSQMWWMINRSNGSENNVLESQAGIQKVKYGNYAFVWDAAVLEYVAINDPDCSFYTIGNTVADRGYGIALQHGSPYRDVFSQRILELQQNGDMDILKHKWWPKNGQCDLYSSVDTKQKGGALDIKSFAGVFCILAAGIVLSCFIAMLETWWNKRKGSRVPSKEDDKEIDLEHLHRRVNSLCTDDDSPHKQFSTSSIDLTPLDIDTLPTRQALEQISDFRNTHITTTTFIPEQIQTLSRTLSAKAASGFTFGNVPEHRTGPFRHRAPNGGFFRSPIKTMSSIPYQPTPTLGLNLGNDPDRGTSI
B1: binds.

B2: hGluD2(ΔATD), human GluD2 with the amino-terminal domain deleted (receptor, UniProt O43424-1 24-1007, looked up)
chain: DSIDKKLENNMRGVVLRVVTVLEEPFVMVSENVLGKPKKYQGFSIDVLDALSNYLGFNYEIYVAPDHKYGSPQEDGTWNGLVGELVFKRADIGISALTITPDRENVVDFTTRYMDYSVGVLLRRAEKTVDMFACLAPFDLSLWACIAGTVLLVGLLVYLLNWLNPPRLQMGSMTSTTLYNSMWFVYGSFVQQGGEVPYTTLATRMMMGAWWLFALIVISSYTANLAAFLTITRIESSIQSLQDLSKQTEIPYGTVLDSAVYEHVRMKGLNPFERDSMYSQMWRMINRSNGSENNVLESQAGIQKVKYGNYAFVWDAAVLEYVAINDPDCSFYTIGNTVADRGYGIALQHGSPYRDVFSQRILELQQNGDMDILKHKWWPKNGQCDLYSSVDTKQKGGALDIKSFAGVFCILAAGIVLSCFIAMLETWWNKRKGSRVPSKEDDKEIDLEHLHRRVNSLCTDDDSPHKQFSTSSIDLTPLDIDTLPTRQALEQISDFRNTHITTTTFIPEQIQTLSRTLSAKAASGFTFGNVPEHRTGPFRHRAPNGGFFRSPIKTMSSIPYQPTPTLGLNLGNDPDRGTSI
B2: binds.
